Consider two molecules from patent US20040116333A1 (ABGENOMICS COOPERATIEF U A, published 2004).

For experiment [1], the target named is human P-selectin glycoprotein ligand-1 (PSGL-1) (human) (UniProt Q14242). The experiment in a line: cell-based or functional assay.
Experiment [2] concerns the target T1, recombinant mouse P-selectin/Fc chimera (R&D Systems) (mouse; human, UniProt Q01102 42-709).
T1 construct: range 42-709; The CD33 signal peptide (Met1-Ala16) of the construct is left out; also called mouse P-Selectin fused to the Fc region of human IgG1; P-selectin-Fc fusion protein; not shown: Human IgG1 constant region, Pro100-Lys330
T1 sequence: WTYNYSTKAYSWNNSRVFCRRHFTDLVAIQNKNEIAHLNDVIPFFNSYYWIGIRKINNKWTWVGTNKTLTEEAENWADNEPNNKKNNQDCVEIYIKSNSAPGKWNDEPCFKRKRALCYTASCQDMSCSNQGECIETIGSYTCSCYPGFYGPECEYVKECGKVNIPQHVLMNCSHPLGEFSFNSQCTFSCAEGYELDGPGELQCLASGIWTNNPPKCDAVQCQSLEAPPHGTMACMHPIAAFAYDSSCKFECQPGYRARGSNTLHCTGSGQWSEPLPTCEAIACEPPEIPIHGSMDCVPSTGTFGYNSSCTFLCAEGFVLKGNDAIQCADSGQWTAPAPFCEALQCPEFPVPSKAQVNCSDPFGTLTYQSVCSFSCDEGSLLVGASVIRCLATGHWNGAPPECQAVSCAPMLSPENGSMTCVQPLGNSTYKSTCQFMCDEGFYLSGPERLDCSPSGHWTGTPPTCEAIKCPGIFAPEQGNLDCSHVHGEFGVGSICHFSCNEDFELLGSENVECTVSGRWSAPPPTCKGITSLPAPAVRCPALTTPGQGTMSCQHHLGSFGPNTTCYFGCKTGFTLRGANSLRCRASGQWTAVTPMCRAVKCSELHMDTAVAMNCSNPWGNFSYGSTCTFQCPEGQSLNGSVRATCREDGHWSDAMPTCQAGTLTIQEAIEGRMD
Put plainly: flow cytometry on Con A-activated mouse T cells, FITC-anti human IgG Fc detection. As for the experimental part: To determine ability of selectins (P-Selectin, E-Selectin, and L-Selectin) to bind to activated T cells, freshly prepared splenocytes from C57BL/6 mice were activated and harvested at days 2, 4, and 6. Non-activated T cells (i.e., freshly prepared splenocytes at day 0) were also analyzed. The day 2 sample constituted 3×10⁶ cells/ml of splenocytes that were activated with 2 ug/ml of Concanavalin A (Con A) in DMEM+10% FBS for 2 days. Live cells were isolated by Ficoll gradient separation. The day 4 sample was obtained from cells that were activated with Con A for 3 days and maintained in medium containing 5 ng/ml of IL-2 for an additional day. The day 6 sample was derived from cells that were activated with Con A for 3 days and maintained in 5 ng/ml of IL-2 for 3 days.
To assay the samples by FACS analysis, 2×10⁵ cells per well from days 0, 2, 4 and 6 were incubated at 4° C. for 30 minutes with 40 ul/well of mouse P-Selectin, E-Selectin, or L-Selectin fused to the Fc region of human IgG1 (R&D Systems, Minneapolis, Minn.) at concentrations ranging from 20 ug/ml with two-fold serial dilution to 0.156 ug/ml. Following the incubation, cells were washed with 1× FACScan buffer (1×PBS without calcium and magnesium ions from Biochrom AG, Berlin and 2% FBS). […]
Background: A flow cytometer gives signals particle by particle.

Chain of human P-selectin glycoprotein ligand-1 (PSGL-1) (human) (Q14242 42-412): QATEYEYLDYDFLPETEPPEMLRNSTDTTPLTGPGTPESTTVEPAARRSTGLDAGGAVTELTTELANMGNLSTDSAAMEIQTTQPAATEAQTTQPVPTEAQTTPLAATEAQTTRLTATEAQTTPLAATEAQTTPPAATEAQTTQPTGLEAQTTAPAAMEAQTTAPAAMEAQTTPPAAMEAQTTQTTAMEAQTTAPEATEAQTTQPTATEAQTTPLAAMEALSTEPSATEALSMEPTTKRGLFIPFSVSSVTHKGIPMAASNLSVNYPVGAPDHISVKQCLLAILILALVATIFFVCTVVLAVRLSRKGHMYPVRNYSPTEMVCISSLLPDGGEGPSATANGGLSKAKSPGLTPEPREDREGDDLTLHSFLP

As for “anti-PSGL-1 antibody clone KPL-1 (BD PharMingen)”, in experiment [1], the percentage of apoptotic cells (Annexin V / PI, FACS) in PHA-activated human PBMC, day 3, with rabbit anti-mouse Ig cross-linker amounted to 8.5% and the percentage of apoptotic cells (Annexin V / PI, FACS) in PHA-activated human PBMC, day 8, with rabbit anti-mouse Ig cross-linker came out at 24%.

B1: mouse P-selectin glycoprotein ligand-1 (PSGL-1), first designated T cell apoptosis inducing protein (TAIP) (receptor, UniProt Q62170 42-397, looked up)
chain: QVVGDDDFEDPDYTYNTDPPELLKNVTNTVAAHPELPTTVVMLERDSTSAGTSERATEKIATTDPTAPGTGGTAVGMLSTDSATQWSLTSVETVQPASTEVETSQPAPMEAETSQPAPMEAETSQPAPMEAETSQPAPMEADTSQPAPMEAETSQPAPNEAETSKPAPTEAETSKPAPTEAETTQLPRIQAVKTLFTTSAATEVPSTEPTTMETASTESNESTIFLGPSVTHLPDSGLKKGLIVTPGNSPAPTLPGSSDLIPVKQCLLIILILASLATIFLVCTVVLAVRLSRKTHMYPVRNYSPTEMICISSLLPEGGDGAPVTANGGLPKVQDLKTEPSGDRDGDDLTLHSFLP
notes: whole, on cells; Endogenous protein on mouse T cells; For immunoprecipitation and western blot it was solubilised from RL1 T cell lysates; also called TAIP antigen; CD162
Regarding B1, the binding result in experiment [2] is “binds”.
